Results as given in patent US20190070251A1.
One block for each substance: values may come before it.

Columns and labels:
[1] = biological target: GPR54 G-Protein coupled receptor (cloned human GPR54) (human) (UniProt Q969F8); test: cell-based or functional assay
[2] = biological target: human δ opioid receptor (human) (UniProt P41143); test: Kd of the radioligand, previously determined under these assay conditions; membranes of CHO-K1 cells with recombinant human δ opioid receptor (OGF series)
[3] = biological target: human δ opioid receptor (human) (UniProt P41143); test: Kd of the radioligand, previously determined under these assay conditions; membranes of CHO-K1 cells with recombinant human δ opioid receptor (biphalin series)

human δ opioid receptor (human), sequence (P41143 whole entry, stated change not applied): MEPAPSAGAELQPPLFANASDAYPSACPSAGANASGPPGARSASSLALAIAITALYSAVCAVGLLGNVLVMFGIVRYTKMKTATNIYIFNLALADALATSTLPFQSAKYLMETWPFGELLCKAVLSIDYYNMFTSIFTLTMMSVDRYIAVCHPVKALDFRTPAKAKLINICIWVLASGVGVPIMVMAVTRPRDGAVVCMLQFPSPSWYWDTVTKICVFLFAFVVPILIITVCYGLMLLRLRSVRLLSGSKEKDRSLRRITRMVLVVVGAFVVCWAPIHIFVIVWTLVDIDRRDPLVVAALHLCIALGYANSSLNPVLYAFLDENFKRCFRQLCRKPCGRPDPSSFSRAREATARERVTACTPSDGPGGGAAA

EC50 (nM) of agonist activation at GPR54 (FLIPR calcium flux) [1]: 10 nM
Fold change compared to metastin [1]: 1 fold
Substance: Kisspeptin-10 (peptide)

Kd [2]: 3 nM
Kd [3]: 3.9 nM
Substance: [3H] DPDPE (peptide)

EC50 (nM) of agonist activation at GPR54; time of release 2 h [1]: 200 nM
Substance: mono-[mPEG-SBC-30K]-[Kisspeptin-10] (peptide)
